Measured values reported in paper PMC4061085.

Legend:
[1] = molecular target: CK1δ KD (kinase domain of CK1δ) (rat) (UniProt Q06486)
[2] = molecular target: CK1δ from rat as GST-tagged fusion protein (rat) (UniProt Q06486)
[3] = molecular target: CK1ε from human as HIS-tagged fusion protein (human) (UniProt P49674)
Sequence of UniProt P49674 (P49674 whole entry, the tested form may be a part): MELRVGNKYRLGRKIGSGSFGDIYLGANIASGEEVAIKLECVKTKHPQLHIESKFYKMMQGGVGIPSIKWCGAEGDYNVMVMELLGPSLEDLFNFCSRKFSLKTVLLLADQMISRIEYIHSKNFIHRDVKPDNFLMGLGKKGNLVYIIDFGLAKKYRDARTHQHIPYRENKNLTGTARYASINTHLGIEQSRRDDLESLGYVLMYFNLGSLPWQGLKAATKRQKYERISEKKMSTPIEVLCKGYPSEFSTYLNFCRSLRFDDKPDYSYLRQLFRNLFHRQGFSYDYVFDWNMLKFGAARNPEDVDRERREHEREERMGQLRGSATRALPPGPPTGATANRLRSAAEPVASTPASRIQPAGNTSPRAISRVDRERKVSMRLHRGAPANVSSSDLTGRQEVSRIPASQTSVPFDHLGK

| Km of phosphorylation of GST-tubulin by the CK1 isoform (Michaelis-Menten kinetics, in vitro kinase assay, 32P incorporation, 30 min at 30°C) [1] | Km of phosphorylation of GST-tubulin by the CK1 isoform (Michaelis-Menten kinetics, in vitro kinase assay, 32P incorporation, 30 min at 30°C) [2] | Km of phosphorylation of GST-tubulin by the CK1 isoform (Michaelis-Menten kinetics, in vitro kinase assay, 32P incorporation, 30 min at 30°C) [3] | Substance |
| --- | --- | --- | --- |
| 0.266 µM | 0.205 µM | 0.329 µM | Recombinant human α-tubulin1B (GST-tubulin) (from UniProt P68363 1-451) (natural protein) |
| 0.438 µM | 0.337 µM | 0.602 µM | Recombinant human α-tubulin4A (GST-tubulin) (from UniProt P68366 1-448) (natural protein) |
| 1.47 µM | 1.17 µM | 1.41 µM | Recombinant human β-tubulin2A (GST-tubulin) (from UniProt Q13885 1-445) (natural protein) |
